In patent US20020077295A1 (YALE UNIVERSITY, published 2002):
Where no end group is shown, it is not given here.

B3: murine NgR (Nogo-66 receptor) expressed on COS-7 cells (receptor)
chain: CPGACVCYNEPKVTTSCPQQGLQAVPTGIPASSQRIFLHGNRISHVPAASFQSCRNLTILWLHSNALARIDAAAFTGLTLLEQLDLSDNAQLHVVDPTTFHGLGHLHTLHLDRCGLRELGPGLFRGLAALQYLYLQDNNLQALPDNTFRDLGNLTHLFLHGNRIPSVPEHAFRGLHSLDRLLLHQNHVARVHPHAFRDLGRLMTLYLFANNLSMLPAEVLMPLRSLQYLRLNDNPWVCDCRARPLWAWLQKFRGSSSEVPCNLPQRLADRDLKRLAASDLEGCAVASGPFRPIQTSQLTDEELLSLPKCCQPDAADKASVLEPGRPASAGNALKGRVPPGDTPPGNGSGPRHINDSPFGTLPSSAEPPLTALRPGGSEPPGLPTTGPRRRPGCSRKNRTRSHCRLGQAGSGASGTGDAEGS
notes: Library clone or pcDNA3.1 construct transfected into COS-7 cells; GPI-linked protein, cleavage site of the GPI signal not applied here; also called mouse NgR; mNgR
B6: AP-Nogo (His-AP-Nogo, 66 amino acid) (ligand)
chain: HHHHHHIIPVEEENPDFWNREAAEALGAAKKLQPAQTAAKNLIIFLGDGMGVSTVTAARILKGQKKDKLGPEIPLAMDRFPYVALSKTYNVDKHVPDSGATATAYLCGVKGNFQTIGLSAAARFNQCNTTRGNEVISVMNRAKKAGKSVGVVTTTRVQHASPAGTYAHTVNRNWYSDADVPASARQEGCQDIATQLISNMDIDVILGGGRKYMFRMGTPDPEYPDDYSQGGTRLDGKNLVQEWLAKRQGARYVWNRTELMQASLDPSVTHLMGLFEPGDMKYEIHRDSTLDPSLMEMTEAALRLLSRNPRGFFLFVEGGRIDHGHHESRAYRALTETIMFDDAIERAGQLTSEEDTLSLVTADHSHVFSFGGYPLRGSSIFGLAPGKARDRKAYTVLLYGNGPGYVLKDGARPDVTESESGSPEYRQQSAVPLDEETHAGEDVAVFARGPQAHLVHGVQEQTFIAHVMAFAACLEPYTACDLAPPAGTTDAAHPGRIYKGVIQAIQKSDEGHPFRAYLESEVAISEELVQKYSNSALGHVNCTIKELRRLFLVDDLVDSLK
notes: also called AP fused Nogo-66

Assays:
[1] = biological target: T1, AP-NgR (mNgR residues 27-451 fused to 6xHis-placental alkaline phosphatase) (mouse, UniProt P05187 23-511 (human entry)); assay: AP-NgR binding to transfected COS-7 cells
T1 construct: Soluble probe in the self-association test

[2] = biological target: B6; assay: AP-hNogo-A(1055-1120) binding to transfected COS-7 cells
Procedure: Forty-eight hours after the transfection, the transfected COS-7 cells were washed with hanks balanced salt solution containing 20 mM sodium HEPES, pH 7.05, and 1 mg/ml bovine serum albumin (BSA) [hereinafter “HBH”]. […] AP-fusion protein was detected as previously described for AP-Sema3A (Takahashi et al., Nature Neurosci. 1:487-493, 1998).
Because the NgRΔ1-2, NgRΔ3-4, NgRΔ5-6, and NgRΔ7-8 deletions remove entire LRR domains it is unlikely that the entire tertiary structure of mNgR is disrupted.

[3] = biological target: B6; assay: AP-fusion binding to COS-7 cells expressing mouse NgR
[4] = biological target: B6; assay: AP-Nogo binding to COS-7 cells transfected with the mouse NgR clone
Text: A Nogo binding assay was developed which utilizes a method widely used in examining semaphorin and ephrin axonal guidance function (Flanagan & Vanderhaeghen, (1998) Annu. Rev. Neurosci. 21, 309-345; Takahashi et al., (1999) Cell 99, 59-69). It involves fusing a secreted placental alkaline phosphatase (AP) moiety to the ligand in question to provide a biologically active receptor binding agent which can be detected with an extremely sensitive colorimetric assay. For Nogo, an expression vector was created encoding a signal peptide, a His6 tag for purification, AP and the 66 amino acid active domain of Nogo. The fusion protein can be purified from the conditioned medium of transfected cells in milligram amounts (FIG. 5). This protein is biologically active as a growth cone collapsing agent, with an EC₅₀ of 1 nM. […] Binding is blocked by GST-Nogo and by the antagonistic 25 amino acid peptides, consistent with competitive binding to a neuronal receptor site.
This assay was utilized for expression cloning of a NgR. Pools of a mouse adult brain cDNA expression library representing 250,000 independent clones were transfected into non-neuronal COS-7 cells. […] Single cDNA clones encoding a Nogo biding site were isolated by sib-selection from each of the two positive pools. […]

[5] = biological target: T2, AP (alkaline phosphatase alone) (UniProt P05187 23-511); assay: AP binding to COS-7 cells transfected with the mouse NgR clone
T2 construct: Control without Nogo residues; also called AP alone
Text: This assay was utilized for expression cloning of a NgR. Pools of a mouse adult brain cDNA expression library representing 250,000 independent clones were transfected into non-neuronal COS-7 cells. […] Single cDNA clones encoding a Nogo biding site were isolated by sib-selection from each of the two positive pools. The two independently isolated clones are identical to one another except for a 100 bp extension of the 5′ untranslated region in one clone. […] Furthermore, GST-Nogo displaces AP-Nogo from these sites.

[6] = biological target: B3; assay: 140-AP binding to COS-7 cells expressing mNgR, bound/free plot
Procedure: To determine if AP-fused deletion mutants of Nogo-66 bind mouse NgR (“mNgR”), COS-7 cells were transfected with a plasmid encoding the mouse NgR sequence ligated into pcDNA3.1. 48 hours after transfection, cells were washed with HBH (Hanks balanced salt solution containing 20 mM sodium Hepes, pH 7.05, and 1 mg ml⁻¹ bovine serum albumin) and then incubated with condition medium containing one of the AP-fusion proteins described above for 2 hours at 37° C. Cells were then washed, fixed, and left in HBH at 67° C. for 14-16 h to inactivate endogenous AP. AP-fusion protein binding to NgR expressing COS-7 cells was detected with the substrates NBT and BCIP (FIG. 13b).
FIG. 14b graphically depicts the binding of 140-AP to COS-7 cells expressing mNgR as measured as a function of 140-AP concentration.

[7] = biological target: B3; assay: binding to mNgR, data not shown
[8] = biological target: T3, Nogo binding sites (axonal Nogo receptors) on chick dorsal root ganglion neurons (chick); assay: AP-fusion ligand binding to dissociated neurons, Scatchard analysis
T3 construct: Target is defined only by the cells that carry it; also called neuronal receptor site
Procedure: Purified protein was subjected to SDS-PAGE and stained for total protein with CBB or immunoblotted with anti-Nogo antibodies (anti-Nogo). Molecular weight markers of 200, 116, 97, 65 and 45 kDa are shown at left, and the migration of AP-Nogo at right. (b) is a photograph of dissociated chick E12 dorsal root ganglion neurons that were incubated with 10 nM AP-Nogo or 10 nM AP-Nogo+160 nM GST-Nogo for sixty minutes at 23° C. The cells were washed, fixed and incubated at 60° C. in order to inactivate endogenous AP. Bound AP-Nogo was detected by incubation with nitro blue tetrazolium. Note the intense neuronal staining by AP-Nogo that is displaced by unlabeled ligand. (c) is a graph displaying experimental data where the potency of AP-Nogo and GST-Nogo in E12 chick dorsal root ganglion growth cone collapse assays was assessed as described in the Example section. […] The means±s.e.m. calculated from five to eight determinations are illustrated. (d) is a graph displaying experimental data where the binding of 10 nM AP-Nogo to chick E12 dorsal root ganglion neurons was assessed alone, or in the presence of 100 nM GST-Nogo or in the presence of 4 μM Pep2, which was quantified from experiments as in (b) by the method described in the Example section. The means±s.e.m. calculated from eight determinations are shown. […]

[9] = biological target: T3, Nogo binding sites (axonal Nogo …); assay: cell-based or functional assay

B1: NgRΔNT (residues 58 to 473 of mNgR) (receptor, not shown: small tags and cut ends)
chain: SSQRIFLHGNRISHVPAASFQSCRNLTILWLHSNALARIDAAAFTGLTLLEQLDLSDNAQLHVVDPTTFHGLGHLHTLHLDRCGLRELGPGLFRGLAALQYLYLQDNNLQALPDNTFRDLGNLTHLFLHGNRIPSVPEHAFRGLHSLDRLLLHQNHVARVHPHAFRDLGRLMTLYLFANNLSMLPAEVLMPLRSLQYLRLNDNPWVCDCRARPLWAWLQKFRGSSSEVPCNLPQRLADRDLKRLAASDLEGCAVASGPFRPIQTSQLTDEELLSLPKCCQPDAADKASVLEPGRPASAGNALKGRVPPGDTPPGNGSGPRHINDSPFGTLPSSAEPPLTALRPGGSEPPGLPTTGPRRRPGCSRKNRTRSHCRLGQAGSGASGTGDAEGS
notes: In pSecTag2, on COS-7 cells; vector tags as for wtNgR; also called amino terminus deletion
- binding result [1]: no binding
- binding result [2]: no binding

B2: NgLRR- (residues 306 to 473 of mNgR) (receptor, not shown: small tags and cut ends)
chain: LEGCAVASGPFRPIQTSQLTDEELLSLPKCCQPDAADKASVLEPGRPASAGNALKGRVPPGDTPPGNGSGPRHINDSPFGTLPSSAEPPLTALRPGGSEPPGLPTTGPRRRPGCSRKNRTRSHCRLGQAGSGASGTGDAEGS
notes: In pSecTag2, on COS-7 cells; also called complete LRR domain deleted
- binding result [1]: no binding
- binding result [2]: no binding

Binder: B3
- Kd [3]: ~7 nM
- Kd [4]: ~3 nM
- binding result [5]: no binding

B4: 140-AP (fusion protein containing AP and the 1-40 peptide, residues #1055-1094 of hNogoA) (ligand)
chain: RIYKGVIQAIQKSDEGHPFRAYLESEVAISEELVQKYSNS
modifications: also: fused to alkaline phosphatase (AP), order not given here
notes: not shown: alkaline phosphatase of vector pcAP-6
- Kd [6]: 8 nM

B5: peptide having residues 10-40 of hNogoA(#1055-1120) (peptide)
peptide: IQKSDEGHPFRAYLESEVAISEELVQKYSNS
- binding result [7]: no binding

Binder: B6
- Kd [8]: 3 nM
- growth cone collapse, chick E12 dorsal root ganglion (EC50) [9]: 1 nM
